# Results reported in the RNAGym collection of RNA variant scans (doi:10.1073/pnas.2313332121).
# B1: TPR t1 (parent)
# chain: GACCAAUCUGCCCUCAGAGCUCGAGAACAUCUUCGGAUGCAGAGGAGGCAGGCUUCGGUGGCGCGAUAGCGCCAACGUCCUCAACCUCCAAUGCAUCCCACCACAUGAUGAUGCCUGAAGAGCCUUGGUUUUUUG
# Variants of: B1
# Assay: polymerase ribozyme fitness, log enrichment relative to wild type (log ratio); higher = more active; in vitro selection for triplet polymerase activity
# Summary of the method: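 Streptavidin-bead capture of gel-excised extended constructs, followed by RT-PCR, closed a single triplicate in vitro selection round. That round began by annealing PCR-built, transcribed mutant libraries of each subunit of a heterodimeric triplet polymerase ribozyme with a biotinylated primer, the partner subunit and triplets, then incubating them frozen at −7 °C. After Illumina sequencing of inputs and outputs, genotypes needed ≥10 input reads and ≥1 read per output. Fitness is the base-2 logarithm of genotype enrichment over wild-type enrichment, using inverse-variance-weighted replicate averages.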
row,Variant,polymerase ribozyme fitness (log ratio)
1,GACCAAUCUGCCCUCUGAGCUCGAGAACAUCUUCGGAUGCAGAGGAGGCAGGCUUCGGUGGCUCGAUAGCGCCAACGUCCUCAACCUCCAAUGCAUCCCACCACAUGAUGAUUCCUGAAGAGCCUUGGUUUUUUG [A16U G63U G113U],-5.93
2,GACCAAUCUGCCCUCUGAGCUCGAGAACAUCUUCGGAUGCAGAGGAGGCAGGCUUCGGUGGCGCGAUAGCGCCAACGUCCUCAACCUCCAAUGCAUCCCACCACAUGAUGAUACCUGAAGAGUCUUGGUUUUUUG [A16U G113A C123U],-4.77
3,GACCAAUCUGCCCUCUGAGCUCGAGAACAUCUUCGGAUGCAGAGGAGGCAGGCUACGGUGGCGCGAUAGCGCCAACGUCCACACCCUCCAAUGCAUCCCACCACAUGAUGAUGCCUGAAGAGCCUUGGUUUAUUG [A16U U55A U81A A84C U132A],-2.61
4,GACCAAUCUGCCCUCUGAGCUCGAGAACAUCUUCGGAUGCAUAGGAGGCAGGCUUCGGUGGCGCGAUAGCGCCAACGUCCUCAACCUCCAAUGCAUCCCACCACAUGAUGAUGCCUGAAGAGCCUUGGUCUUUUG [A16U G42U U130C],-3.77
5,GACCAAUCUGCCCUCUGAGCUCGAGAACAUCUUCGGAUGCAGAGAAGGCAGGCUUCGGUGGCGCGAUAGUGCCAACGUCCUCAACCUCCAAUGCAUCCCACCACAUGAUGAUGCCUGUAGAGCCUUGGUUUUUUG [A16U G45A C70U A118U],-2
6,GACCAAUCUGCCCUCUGAGCUCGAGAACAUCUUCGGAUGCAGAGGAGGCAGGCUUCGGUGGCGCGAUAGCGCCAACGUCCUCAACCUCCAAUACAUCCCACCACAUGAUGAUGCCUGAAGAGCCUUGGUUUUAUG [A16U G93A U133A],-2.82
7,GACCAAUCUGCCCUCUGAGCUCGAGAACAUCUUCGGAUGCAGAGGAGGCAGGCUUCGGUGGCACGAUAGCGCCAACGUCCUCAACCUCCAAUGCAUCCCACCACAUGAUGAUGCCUGAAGAGCCUUGGUUUUUUG [A16U G63A],-2.16
8,GACCAAUCUGCCCUCUGAGCUCGAGAACAUCUUCGGAUGCAGAGGAGGCAGGCUUCGGUGGCGCGAUAUCGCCAACGUCGUCAACCUCCCAUGCAUCCCACCACAUGAUGAUGCCUGAAGAGCCUUGGUUUUUUG [A16U G69U C80G A90C],-6.49
9,GACCAAUCUGCCCUCUGAGCUCGAGAACAUCUUCGGAUGCAGAGGAGGCAGGCUUCGGUGGCGCGAUAGCGCCAACGUCCUCAACCUCCAAUGCAUCCCACCACAUGAUAAUGCCUGAAGAGCCUUGGUUUCUUG [A16U G110A U132C],-2.1
10,GACCAAUCUGCCCUCUGAGCUCGAGAACAUCUUCGGAUGCAGAGGAGGCAGGCUUCGGUGGCGCGAUAGCUCCAACGUCCUCAACCUCCAAUGCAUCCCACCACAGGAUGUUGCCUGAAGAGCCUUGGUUUUUUG [A16U G71U U106G A111U],-5.64
11,GACCAAUCUGCCCUCUGAGCUCGAGAACAUCUUCGGAUGCAGAGCAGGCAGGGUUCGGUGGCGCGAUAGCGCCAACGUCCUCAACCUCCGAUGCAUCCCACCACAUGAUGAUACCUGAAGCGCCUUGGUUUUUUG [A16U G45C C53G A90G G113A A121C],-4.47
12,GACCAAUCUGCCCUCUGAGCUCGAGAACAUCUUCGGAUGCAGAGGAGGCAGGCUUCGGUGACGCGAUAGCGCCAACGUCCUCAACCUCCAAUGCAUCCCACCACAUGAUGAUGCCUGAAGAGCCUUGGUUUUUUG [A16U G61A],-0.972
13,GACCAAUCUGCCCUCUGAGCUCGAGAACAUCUUCGGAUGCAGAGGAGGCAGGCUUCGGUGGCGCGAUAGCGCCAACGUCCUCAACCUCCAAUGCAUCCCACCACAAGAUGAUGCCUGAAGAGCCUUGGUUUUUUG [A16U U106A],-2.08
14,GACCAAUCUGCCCUCUGAGCUCGAGAACAUCUUCGGAUGCAGAGGAUGCAGGCUUCGGUGGCGCGAUACCGCCAACGUCCUCAACCUCCAAUGCAUCCCACCACAUGAUGAUGCCUGAAGAGCCUUGGUUUUUUG [A16U G47U G69C],-3.2
15,GACCAAUCUGCCCUCUGAGCUCGAGAACAUCUUCGGAUGCAGAGGAGGCAGGCUUCGGAGGCGCGAUAGCGCCAACGUCCUCAACCUCCAAUGCAUCCCACCACAUGAUGAUGCCUGAAGAGCCUUGGUUUUUUG [A16U U59A],0.971
16,GACCAAUCUGCCCUCUGAGCUCGAGAACAUCUUCGGAUGCAGAGGAGGCAGGCUUCGGGGGCGCGAUAGCGCCAACGUCCUCAACCUCCAAUGCAUCCCACCACAUGAUGAUGCCUGAAGAGCCUUGGUUUUUUG [A16U U59G],-1.3
17,GACCAAUCUGCCCUCUGAGCUCGAGAACAUCUUCGGAUGCAGAGGAGGCAGGCUUCGGUGGCGCGAUAUCGCCAACAUCCUCAACCUCCAAUGCAUCCCACCACAUGAUGAUGCCAGAAGAGCCUUGGUUUUUUG [A16U G69U G77A U116A],-1.32
18,GACCAAUCUGCCCUCUGAGCUCGAGAACAUCUUCGGAUGCAGAGGAGGCAGGCUUCGGUGGCGCGAUAGCGCCAACGUCCGCAACCUCCAAUGCAUCCCACCACAUGAUGAUGCCUGAAGAGCCUUGGUUUUUUG [A16U U81G],-5.13
19,GACCAAUCUGCCCUCUGAGCUCGAGAACAUCUUCGGAUGCAGAGGAGGCAGGCUUCGGUGGCGCGAUAGCGCCAACGUCCACAACCUCCAAUGCAUCCCACCACAUGAUGAUGCCUGAAGAGCCUUGGUUUUUUG [A16U U81A],-2.6
20,GACCAAUCUGCCCUCAAAGCUCGAGAACAUCUUCGGAUGCAGAGGAGGCAGGCUUCGGUGGCGCGAUAGCGCCAACGUCCUCAACCUCCAAUGCAUCCCACCACAUGAUGAUGCCUGAAGAGCCUUGGUUUUUUG [G17A],-2.59
21,GACCAAUCUGCCCUCUGAGCUCGAGAACAUCUUCGGAUGCAGAGGAGGCAGGCUUCGGUGGCGCGAUAGCGCCAACGUCCUCAACCUCCAAUGCAUCCCACCACAUGAUGAUGCCUGAAGAGCCUUGGUUUUGUG [A16U U133G],-2.05

row,Variant,polymerase ribozyme fitness (log ratio)
1,GACCAAUCUGCCCUCUGAGCUCGAGAACAUCUUCGGAUGCAGAGGAGGCAGCCUUCGGUGGCGCGAUAGCUCCAACGUCCUCAACCUCCAAUGCAUCCCACCACAUGAUGAUGCCUCGAGAGCCUAGGUUUUUUG [A16U G52C G71U G117C A118G U126A],-6.61
2,GACCAAUCUGCCCUCUGAGCUCGAGAACAUCUUCGGAUGCAAAGGAGGCAGGCUUCGGUGGCGCGAUAGCGCCAACGUCCUCAACCUCCAAUGCAUCCCACCACAUGAUGAUGCCUGAAGAGCCUUGGUUUUUUG [A16U G42A],-3.84
3,GACCAAUCUGCCCUCUGAGCUCGAGAACAUCUUCGGAUGCAGAGGAGGCAGGCUUCGGUGCCGCGAUAGCGCCAACGUCCUCAACCUCCAAUGCAUCCCACCACAUGAUGAUGCCUCAAGAGCGUUGGUUUUUUG [A16U G61C G117C C124G],-4.49
4,GACCAAUCUGCCCUCUGAGCUCGAGAACAUCUUCGGAUGCAGAGGAGGCAGGCUUCGGUGGCGCGAUAGCGCCAACGUCCUCAACCUCCAAUGCAUCCCACCACAUGAUGAUGCCUUAAGAGACUUGGUUUUUUG [A16U G117U C123A],-4.24
5,GACCAAUCUGCCCUCUGAGCUCGAGAACAUCUUCGGAUGCAGAGAAGGCAGGCUUCGGUGGCGCGAUAGCGCCAACGUCCUCAACCUCCGAUGCAACCCACCACAUGAUGAGGCCUGCAGAGCCUUGGUUUUUUG [A16U G45A A90G U96A U112G A118C],-3.03
6,GACCAAUCUGCCCUCUGAGCUCGAGAACAUCUUCGGAUGCAGAGGAGGCAGGCUUCGGUGCCGCGAUAGCGCCAACGUCCUCAACCUCCAAUGCAUCCCACCACAUGAUGAUGCCUGAAGAGCCUUGGUGUUUUG [A16U G61C U130G],-2.75
7,GACCAAUCUGCCCUCUGAGCUCGAGAACAUCUUCGGAUGCAGAGGAGGCAGGCUUCGGUGGCGCGAUAGCGCCAACGUCCUCAACCUCCAAUGCAUCCCACCACAUGAUGAAGCCUGAAGAGCCUUGGUUUUUUG [A16U U112A],0.0459
8,GACCAAUCUGCCCUCUGAGCUCGAGAACAUCUUCGGAUGCAGAGGAGGCAGGCUUCGAUGGAGCGAUAGCGCCAACGUCCUCAACCUCCAAUGCAUCCCACCACAUGAUGAUGCCUGAAGAGCCUUGGUUUUUUG [A16U G58A C62A],-3.9
9,GACCAAUCUGCCCUCUGAGCUCGAGAACAUCUUCGCAUGCAGAGGAGGCAGGCUUCGGUGGAGCGAUAGCGCCAACGUCCUCAACCUCCAAUGCAUCCCACCACAUGAUGAUGCCUGAAGCGCCUUGGUUUUUUG [A16U G36C C62A A121C],-1.88
10,GACCAAUCUGCCCUCUGAGCUCGAGAACAUCAUCGGAUGCAGAGGUGGCAGGCUUCGGUGGCGCGCUAGCGCCAACGUCCUCAACCUCCAAUGCAUCCCACCCCAUGAUGGUGCCUGAAGAGCCUUGGUUUUUUG [A16U U32A A46U A66C A103C A111G],-7.56
11,GACCAAUCUGCCCUCUGAGCUCGAGAACAUCUUCGGAUGCAGAGGAGGCAGUCUUCGGUGGCGCGAUAGCGCCAACGUCCUCAACCUCCAAUGCAUCCCACCACAUGAUGCUGCCUGAAGAGCCUGUGUUUUUUG [A16U G52U A111C U126G G127U],-2.8
12,GACCAAUCUGCCCUCUGAGCUCGAGAACAUCUUCGGAUGCAGAGGAGGCAGGCUUCGGUGUCGCGAUAGCGCCAACGUCCUCAACCUCCAAUGCAUCCCACCACAUGAUGAUGCCUGAAGAGCCUUGGUUUUUUU [A16U G61U G135U],-1.98
13,GACCAAUCUGCCCUCUGAGCUCGAGAACAUCUUCGGAUGCAGAGGAGUCAGGCUUCGGUGGGGCGAUAGCGCCAACGUCCUCAAACUCCAAUGCAUCCCACCACAUGAUGAUGCCUGAAGAGCCUUGGUUUUUUG [A16U G48U C62G C85A],-3.66
14,GACCAAUCUGCCCUCUGAGCUCGAGAACAUCUUCGGAUGCAGAGGAGGCAGGCUCCGGUGGCGCGAUAGCGCCAACGUCCUCAACCUCCAAUGCAUCCCACCACAUGAUGAUGCCUGAAGAGCCUUGGUUUUUUG [A16U U55C],-2.11
15,GACCAAUCUGCCCUCUGAGCUCGAGAACAUCUUCGGAUGCAGAGGAUGCAGACUUCGGUGGCGCGAUAGCGCCAACGUCCUCAACCUCCAAUGCAUCCCACCACAUGAUGAUGCCUGAAGAGCCUUGGUUUUUUG [A16U G47U G52A],-4.24
16,GACCAAUCUGCCCUCUGAGCUCGAGAACAUCUUCGGAUGCAGAGGAGGCAGGCUUCGGUGGCGCGAUAUCGCCAACGUCCUCAACCUCUAAUGCAUCCCACCACAUGAUGAUGCCUGAAGAGCCUUGGUUUUUUG [A16U G69U C89U],-1.47
17,GACCAAUCUGCCCUCUGAGCUCGAGAACAUCUUCGAAUGCAGAUGAGGCAGGCUUCGGUGGCGCGAUAGCGCCAACGUCCUCCACCUCCAAUGCAUCCCACCACAUGAUGAUGCCUGAAGAGCCUUGGUUUUUUG [A16U G36A G44U A83C],-5.08
18,GACCAAUCUGCCCUCUGAGCUCGAGAACAUCUUCGGAUGCAGAGGAUGCAGUCUUCGGUGGCGCGAUAGCGCCAACGUCCUCAACCUCCAAUGCAUCCCACCACAUGAUGAUGCUUCAAGAGCCUUGGUUUUUUG [A16U G47U G52U C115U G117C],-5.71
19,GACCAAUCUGCCCUCUGAGCUCGAGAACAUCUUCGGAUGCAGAGGAGGCAGGCUUCGGUGGCGCGAUAGCGCCAACGUCCUCAACCUCCAAUGCAUCCCACCACAUGAUGAUGCCUGAAGAGCCUUUGUUUUUUG [A16U G127U],-2.81
20,GACCAAUCUGCCCUCUGAGCUCGAGAACAUCUUCGGAUGCAGAGGAGGCAGACUUCGGUGGCGCGAUAGCGCCAACGUCCUCAACCUCCAAUGCAUCCCACCACAUGAUGAUGCCUGAAGAGCCUUGGUUUUUUG [A16U G52A],-2.03
21,GACCAAUCUGCCCUCUGAGCUCGAGAACAUCUUCGGAUGCAGAGGAGGCAGUCUUCGGUGGCGCGAUAGCGCCAACGCCCUCAACCUCCAAUGCAUCCCACCACAUGAUGCUGCCUGAAGAGCCUGUGUUUUUUG [A16U G52U U78C A111C U126G G127U],-3.36
